Measured values reported in patent US20240109974A1 (SHANDONG SIMCERE BIOPHARMACEUTICAL, published 2024).

T1: human TNFR2 on the surface of CHO-TNFR2 cells (human, UniProt P20333 23-461)
T1 construct: whole, on cells
T1 sequence (looked up): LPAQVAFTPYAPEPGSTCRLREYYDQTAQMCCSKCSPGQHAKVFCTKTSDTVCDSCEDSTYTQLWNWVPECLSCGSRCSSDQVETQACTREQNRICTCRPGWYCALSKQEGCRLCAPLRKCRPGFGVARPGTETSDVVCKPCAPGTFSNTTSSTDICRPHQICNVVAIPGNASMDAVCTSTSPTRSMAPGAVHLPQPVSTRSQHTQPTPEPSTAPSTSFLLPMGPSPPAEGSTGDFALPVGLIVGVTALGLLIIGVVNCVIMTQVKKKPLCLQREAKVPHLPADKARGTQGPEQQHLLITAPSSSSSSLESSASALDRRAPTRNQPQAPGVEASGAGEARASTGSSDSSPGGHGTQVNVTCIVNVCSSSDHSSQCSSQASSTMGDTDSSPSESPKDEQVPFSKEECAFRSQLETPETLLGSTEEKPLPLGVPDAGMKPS


What was measured:
[1] = molecular target: T1, human TNFR2 on the surface of CHO-TNFR2 …; experiment: competition flow cytometry on CHO-TNFR2 cells, competitor TNFα-biotin; AUC against 219-WT
Experimental: CHO stable cells highly expressing human TNFR2 were used for the experiment (the same as CHO-TNFR2 in Example 4). The CHO-TNFR2 cells were digested, washed twice with DPBS, then stained with Live/Dead (L/D) (20 minutes at room temperature), and plated at a density of 1×10⁵ cells/50 μl/well. A test anti-TNFR2 antibody was diluted to 6 μg/ml with a staining buffer as the starting concentration: the antibody was subjected to 3.33-fold gradient dilution, with a total of 7 concentration points. The diluted antibody was added to the plated cells at 50 μl/well, and the mixture was mixed well by gentle pipetting, and incubated at 4° C. for 30 minutes. Then the diluted 100 ng/ml of human TNFα-biotin was added at 100 μl/well, and the mixture was mixed well by gentle pipetting, and then incubated at 4° C. for 30 minutes. The mixture was washed twice with a staining buffer, and then 0.12 μg/ml PE-streptavidin (BioLegend, Cat #405204) was added at 100 μl/well; the resulting mixture was incubated at 4° C. for 30 minutes. The mixture was washed twice with a staining buffer, and then 150 μl of staining buffer was added to resuspend the cells; signals were detected by a flow cytometer (Thermo Attune NxT). The inhibitory curve of an antibody was drawn with antibody concentration as the abscissa and corresponding MFI value as the ordinate, and fitted with four parameters (GraphPad Prism9) to calculate the IC50 value. The smaller the IC50 value, the stronger the ability of an antibody to inhibit the binding of human TNFα to human TNFR2. The blocking effect of a humanized antibody was normalized to its corresponding human-murine chimeric WT antibody. The higher the percentage value, the better the inhibitory effect of the humanized antibody.

[2] = molecular target: T1, human TNFR2 on the surface of CHO-TNFR2 …; experiment: flow cytometry on CHO-TNFR2 cells; AUC against 001-WT
Experimental: The transfected full-length plasmid of human TNFR2 was purchased from Sino Biological (Cat #HG10417-UT, NCBI Ref Seq: NM_001066.2). The experiment was conducted at a cell density within 80%. The cell medium was discarded; the cells were rinsed with PBS, and digested with 1 ml trypsin for 2 minutes; the digestion was stopped with a Ham's F12 complete medium containing 10% FBS, and then a cell suspension was made. The cell suspension was counted, and then an appropriate amount of cell suspension was centrifuged at 350×g; the supernatant was discarded; a corresponding volume of blocking solution (10% FBS+PBS) at a density of 1×10⁷ cells/ml was added to resuspend the cells, and the mixture was incubated at 4° C. for 30 minutes. After the incubation, the mixture was centrifuged at 350×g to remove the supernatant, and the cells were resuspended in a staining buffer (2% FBS+PBS) to a density of 2×10⁶ cells/ml, and spread onto a 96-well plate, with 50 μl of cell suspension added to each well for later use. The antibody was diluted with PBS for 10-fold gradient dilution from the highest concentration of 20 μg/m (twice the concentration); the diluted antibody was added to the well containing 50 μl of cell suspension, and placed on a microplate shaker for shaking at 500 rpm for 1 minute, so that the antibody was fully mixed with the cells; the mixture was incubated at 4° C. for 1 h. After the incubation, the cells were washed twice with the staining buffer, with 100 μl per well, and centrifuged at 350-g for 5 minutes, and the supernatant was discarded. The PE goat anti-Human IgG Fc antibody (ebioscience, Cat #12-4998-82) was diluted 250-fold with the staining buffer, with a volume of 100 μl per well added to the washed cell wells; the mixture was mixed evenly, and stained at 4° C. for 30 minutes. After the staining, similarly, the cells were washed twice with the staining buffer; finally, the cells were resuspended in 200 μl of staining buffer; signals were detected by a flow cytometer (Thermo Attune NxT). The stronger the signal, the stronger the binding ability of an antibody to TNFR2. The binding curve of an antibody was drawn with antibody concentration as the abscissa and corresponding mean fluorescence intensity (MFI) fold as the ordinate, and fitted with four parameters (GraphPad Prism9) to calculate the EC50 value.

Binder | % Relative activity (WT antibody/test antibody) [1] | % Relative activity (Test antibody/WT antibody) [2]
219-Hu3 (antibody, V domains shown, also called VH5 + VL5) VH: QVQLVQSGAEVKKPGSSVKVSCKASGYSFTNYWMNWVRQAPGQGLEWMGMIHPSDTETRLNQNFKDRVTITADKSTSTAYMELSSLRSEDTAVYYCARGEGLGAARSVSMDYWGQGTLVTVSS VL: DIQMTQSPSSLSASVGDRVTITCRASQDISNYLNWYQQKPDGTVKLLIYYTAILHSGVPSRFSGSGSGTDYSLTISSLQPEDFATYFCQQGNTLPWTFGQGTKVEIK | 98.5% | –
219-Hu1 (antibody, V domains shown, also called VH3 + VL5) VH: QVQLVQSGAEVKKPGASVKVSCKASGYSFTNYWMNWVRQAPGQRLEWMGMIHPSDTETRLNQNFKDRVTITRDTSASTAYMELSSLRSEDTAVYYCARGEGLGAARSVSMDYWGQGTLVTVSS VL: DIQMTQSPSSLSASVGDRVTITCRASQDISNYLNWYQQKPDGTVKLLIYYTAILHSGVPSRFSGSGSGTDYSLTISSLQPEDFATYFCQQGNTLPWTFGQGTKVEIK | 102% | –
001-Hu5 (antibody, V domains shown, Humanized form of #001; also called VH1 + VL4) VH: EVQLVESGGGLVQPGGSLRLSCAASGFAFSTYDLSWVRQAPGKGLEWVAYINNGGISTYYSDTVKGRFTISRDNAKNTLYLQMNSLRAEDTAVYYCVRGPFYGSANYFDYWGQGTLVTVSS VL: DIQMTQSPSSLSASVGDRVTITCRTSESIYSNLPWYQQKPGKSPKLLVYDATKLAEGVPSRFSGSGSGTDYTLTISSLQPEDFATYYCQHFWVTPWTFGQGTKVEIK | – | 87.8%
001-Hu2 (antibody, V domains shown, Humanized form of #001; also called VH2 + VL2) VH: EVQLVESGGGLVQPGGSLRLSCAASGFAFSTYDLSWVRQAPGKGLEWVAYINNGGISTYYSDTVKGRFTISRDNAKNSLYLQMNSLRAEDTAVYYCVRGPFYGSANYFDYWGQGTLVTVSS VL: DIQMTQSPSSLSASVGDRVTITCRTSESIYSNLPWYQQKPGKSPKLLIYDATKLAEGVPSRFSGSGSGTDFTLTISSLQPEDFATYYCQHFWVTPWTFGQGTKVEIK | – | 88.2%
001-Hu4 (antibody, V domains shown, Humanized form of #001; also called VH2 + VL4) VH: EVQLVESGGGLVQPGGSLRLSCAASGFAFSTYDLSWVRQAPGKGLEWVAYINNGGISTYYSDTVKGRFTISRDNAKNSLYLQMNSLRAEDTAVYYCVRGPFYGSANYFDYWGQGTLVTVSS VL: DIQMTQSPSSLSASVGDRVTITCRTSESIYSNLPWYQQKPGKSPKLLVYDATKLAEGVPSRFSGSGSGTDYTLTISSLQPEDFATYYCQHFWVTPWTFGQGTKVEIK | – | 92.2%
001-Hu1 (antibody, V domains shown, Humanized form of #001; also called VH1 + VL1) VH: EVQLVESGGGLVQPGGSLRLSCAASGFAFSTYDLSWVRQAPGKGLEWVAYINNGGISTYYSDTVKGRFTISRDNAKNTLYLQMNSLRAEDTAVYYCVRGPFYGSANYFDYWGQGTLVTVSS VL: DIQMTQSPSSLSASVGDRVTITCRTSESIYSNLPWYQQKPGKAPKLLLYDATKLAEGVPSRFSGSGSGTDYTLTISSLQPEDFATYYCQHFWVTPWTFGQGTKVEIK | – | 93.4%
001-Hu3 (antibody, V domains shown, Humanized form of #001; also called VH1 + VL3) VH: EVQLVESGGGLVQPGGSLRLSCAASGFAFSTYDLSWVRQAPGKGLEWVAYINNGGISTYYSDTVKGRFTISRDNAKNTLYLQMNSLRAEDTAVYYCVRGPFYGSANYFDYWGQGTLVTVSS VL: DIQMTQSPSSLSASVGDRVTITCRTSESIYSNLPWYQQKPGKAPKLLIYDATKLAEGVPSRFSGSGSGTDYTLTISSLQPEDFATYYCQHFWVTPWTFGQGTKVEIK | – | 87.8%

The next lines start with the values.

% Relative activity (WT antibody/test antibody) [1] | % Relative activity (Test antibody/WT antibody) [2] | Binder
102% | – | 219-Hu2 (antibody, V domains shown, also called VH4 + VL5) VH: QVQLVQSGAEVKKPGSSVKVSCKASGYSFTNYWMNWVRQAPGQGLEWMGMIHPSDTETRLNQNFKDKATITADKSTSTAYMELSSLRSEDTAVYYCARGEGLGAARSVSMDYWGQGTLVTVSS VL: DIQMTQSPSSLSASVGDRVTITCRASQDISNYLNWYQQKPDGTVKLLIYYTAILHSGVPSRFSGSGSGTDYSLTISSLQPEDFATYFCQQGNTLPWTFGQGTKVEIK
109% | – | 219-Hu5 (antibody, V domains shown, also called VH7 + VL5) VH: QVQLVQSGAEVKKPGSSVKVSCKASGYSFTNYWMNWVRQAPGQGLEWMGMIHPSDTETRLNQNFKDRVTITVDKSTSTAYMELSSLRSEDTAVYYCARGEGLGAARSVSMDYWGQGTLVTVSS VL: DIQMTQSPSSLSASVGDRVTITCRASQDISNYLNWYQQKPDGTVKLLIYYTAILHSGVPSRFSGSGSGTDYSLTISSLQPEDFATYFCQQGNTLPWTFGQGTKVEIK
108% | – | 219-Hu4 (antibody, V domains shown, also called VH6 + VL5) VH: QVQLVQSGAEVKKPGSSVKVSCKASGYSFTNYWMNWVKQAPGQGLEWIGMIHPSDTETRLNQNFKDKATLTVDKSTSTAYMELSSLRSEDTAVYYCARGEGLGAARSVSMDYWGQGTLVTVSS VL: DIQMTQSPSSLSASVGDRVTITCRASQDISNYLNWYQQKPDGTVKLLIYYTAILHSGVPSRFSGSGSGTDYSLTISSLQPEDFATYFCQQGNTLPWTFGQGTKVEIK
